Results on two molecules are retold here after CN114605536A (JIANGSU QUANXIN BIOMEDICINE CO LTD, dated 2022).

The target in test [1] is T1, 人胸腺基质淋巴细胞生成素 (Human Thymic Stromal Lymphopoietin, TSLP) (human, UniProt Q969D9 29-159). As to the kind of experiment: cell-based or functional assay.
In test [2] the target is 食蟹猴TSLP (cynomolgus monkey (食蟹猴), UniProt A0A7N9CAT7 29-159). Nature of the test: cell-based or functional assay.
Test [3] addresses T1, 人胸腺基质淋巴细胞生成素 (Human Thymic Stromal …). Nature of the test: SPR, Biacore T200, 25°C, antibody captured on Protein A chip, human TSLP as analyte, 1:1 model, mean of three runs.

Sequence of 食蟹猴TSLP (A0A7N9CAT7 entry or part of it): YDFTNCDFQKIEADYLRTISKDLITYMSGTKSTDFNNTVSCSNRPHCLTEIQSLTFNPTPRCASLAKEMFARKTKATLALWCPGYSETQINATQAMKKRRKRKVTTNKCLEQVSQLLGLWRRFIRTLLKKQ

B1: QX008N (HZD8G2-57) (antibody, V domains shown)
VH: EVQLVESGGGLVQPGGSLRLSCAASGFSLSSYYMSWVRQAPGKGLEWVGFISYGGSAYHATWAQGRFTISKDNSKNTLYLQMNSLRAEDTAVYYCAREFRSMTYGAEWGIWGQGTLVTVSS
VL: AYQMTQSPSSVSASVGDRVTITCQASESIYDTLAWYQQKPGKAPKLLIYSASSLASGVPSRFSGSGSGTDFTLTISSLQPEDFATYYCQQGYTMPDVDKNPFGGGTKVEIKR
By Kd is commonly meant the concentration at which binding is half-saturated. Broadly, the koff is a measure of how fast the partners let go of each other. One may read the kon as the rate constant with which the complex forms. Turning to B1, in test [1], the “抑制人TSLP诱导的PBMC细胞释放TARC(CCL17)活性的IC50” value was determined as 77.1 ng/mL, the 抑制人TSLP诱导的SW756-STAT5-Luciferase报告基因细胞STAT5磷酸化活性的IC50 amounted to 0.837 ng/mL and the “抑制人TSLP诱导的全血释放TARC(CCL17)活性的IC50” value stood at 0.839 ng/mL. The 抑制食蟹猴TSLP诱导的SW756-STAT5-Luciferase报告基因细胞STAT5磷酸化活性的IC50 in test [2] amounted to 0.889 ng/mL. Besides, in test [3], binding was characterised by a dissociation constant (Kd) of 0.0175 nM, the off-rate (koff) was found to be 2.99e-05 s⁻¹ and the kon worked out at 1.74e+06 M⁻¹ s⁻¹.

B2: Tezepelumab (antibody, V domains shown)
VH: QMQLVESGGGVVQPGRSLRLSCAASGFTFRTYGMHWVRQAPGKGLEWVAVIWYDGSNKHYADSVKGRFTITRDNSKNTLNLQMNSLRAEDTAVYYCARAPQWELVHEAFDIWGQGTMVTVSS
VL: SYVLTQPPSVSVAPGQTARITCGGNNLGSKSVHWYQQKPGQAPVLVVYDDSDRPSWIPERFSGSNSGNTATLTISRGEAGDEADYYCQVWDSSSDHVVFGGGTKLTVLG
In test [2], B2 had a 抑制食蟹猴TSLP诱导的SW756-STAT5-Luciferase报告基因细胞STAT5磷酸化活性的IC50 of 1.88 ng/mL.
